Test results: the nanobody polyreactivity screen of Harvey et al. (2022)

Assay: yeast display, Sf9 membrane polyspecificity reagent, FACS + sequencing; frameworks hold sequencing errors
In short: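 Sorting gates, low and high (top ~1%), were placed on anti-HA fluorescence to track expression and on streptavidin fluorescence to track reagent binding. A clone's polyreactivity label is taken from the gate it came out of. The reagent was 10% biotinylated, detergent-solubilized Sf9 membrane, applied for 1 hour at 4 °C to galactose-induced yeast display cells.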

Sequence | polyreactivity (PSR sort gate)
QVQLVESGGGLVQAGGTLRLSCAASGSIFPRYGMGWYRHAPGKERELVAAISGSGGSTYYADSVKGRFTISRDNAKNTVYLQMNSLKPEDTAVYYCNKLRRRVNRDIDDYWGQRTQVTVSS | high polyreactivity
QVQLVESGGGLVQAGGTLRLSCAASGSIFTYNAMGWYRQAPGKERELVAAITRSGGRTYYADSVKGRFTISRDNAKNTVYLQMNSLKPEDNAVYYCNTLRVGWGQGTQVTVSS | high polyreactivity
QVQLVESGGGLVQAGGTLRLSCAASGSIFWSYAMGWYRQAPGKEREFVASITGSGGTTTYADSVKGRFTISRDNAKNTVYLQMISLKPEDTAVYYCNARLHGWYHVYYIYDYWGQGTQVTVSS | low polyreactivity
QVQLVESGGGLVQAGGTLRLSCAASGSTFAANAMGCSRQAPGKERELVAGISESGDRTYADSVKGRFTISRDNAKNTVYLQMNSQKPEETAVYYCNVGANVYLLYFPSRGGVYDYGYWGHGTQVTVSS | low polyreactivity
QVQLVESGGGLVQAGGTLRLSCAASGSTFLTNAMGWNRPAPGKERELVAAIRTSGGSTYYADSVKGRFTISRDNAKNTFYVLMNSLKPEDTAVYYCAASYLRRRFSEYYYWGQGTQVTVSS | high polyreactivity
QVQLVESGGGLVQAGGTLRLSCAASGSTFNEYAMGWYRQAPGKERELVAAIDERGGNTYYADSVKGRFTISRDNAKNTVYLQMNSLKPEDTAVYYCAADAYPYYQSYYPFEYWGQGTQVTVSS | low polyreactivity
QVQLVESGGGLVQAGGTLRLSCAASGSTFRRYAMGWYRHAPVKERELVAAISGRGGSTSYADSVKGRFTISRDNAKNTVYLQMNSLKPEDTAVYYCAADDKYFYPGNGYWGQGTQVTVSS | high polyreactivity
QVQLVESGGGLVQAGGTLRLSCAASGSTFSVNAMGWYRQAPGKERELVASITTSGGSTNYADSVKGRFTISRDNAKNTVYLQMNSLKPEDTAVYYCNDDTPGSSPSDYNYWGQGTQVTVSS | low polyreactivity
QVQLVESGGGLVQAGGTLRLSCADSGLTFAKYAMGWYRQAPGKERQLVAAISRSGGSTYYADSVKGRFTISRDNAKNTVYLQINSLKPEDTARFYCPKSSGTLWITKYDYWGQGTQVTVSS | low polyreactivity
QVQLVESGGGLVQAGGTLRLSCAPSGRIFKTYAMGWYRQAPGKERELVAAITNNGGSTYYADSVKGRFTISRDNAKNTVYLLMNSLKPEDTAVYYCAVYVKYHYPVVTTGYDYWGQGTQVTVSS | high polyreactivity
QVQLVESGGGLVQAGGTLRLSCDASGRTFGYNAMGWYRQAPGKAREFDAAITWSGGSTYYADSVKGRFTISRDNAKNTVYLQMNSLKPEDTAVYYCAADLGRPLHGVAYGYWGQGTQVTVSS | low polyreactivity
QVQLVESGGGLVQAGGTLRLSSAASGFTFGNYAMGWYRQAPGKERELVAAISGRSGRTYYADSVKGRFTISRDNAKNTVYLQMISLKPEVTAVYYCAKKVFGWEYYYWGQGTQVTVSS | high polyreactivity
QVQLVESGGGLVQAGGTLRLTCAASGRIFNSNDMRWYRQAPGKERELVASISPNTGTTYYADSVKGRFTISRDNAKNTVYLQMNSLKPEDTAVYYCAARGVYYQDGLVTGEAEYGYWGQGTQVTVSS | low polyreactivity
QVQLVESGGGLVQAGRSHRLSCAASGRTFKPYAMGWYRPAPGKERELVARISGSGGSTYYADSVKGRFTISRDYAKNTVYLQMNSLNPEDIAVYYCATTPYYWFDYWGQGRQVTVSS | low polyreactivity
QVQLVESGGGLVQAGRSHRLSCAASGSTYANTMGWYIQAPGKERELDAAITYTGGSTYYADSVKGRFTISRDNAKNTVYLQMNSLKPEDTAVYYCAADAQAPPGGFKEYDYWGQGTQVTVSS | low polyreactivity
QVQLVESGGGLVQAGRSIRLSCAASGRTFLGNSLGWYRQAPGKEMELVAAITRNGGGTYYPDSVKGRFTISRDNAKNTVYLQMNSLKPEDTAVYYCAALTSLFWRGGGLDYWGQGTQVTVSS | high polyreactivity
QVQLVESGGGLVQAGRSLLLSCAASGRIFDGYAKGRYRQAPGKERELVAAINSNDGTTYYADSVKGRFTISRDKAKHTVYVQMNSLKPEDTAVYYCAKVSYNAWSYGPQMDYWGQGTQVTVSS | low polyreactivity
QVQLVESGGGLVQAGRSLPLSCAASGRTFRPNAMGWYRQAPGKERELVAVSSWRGGRTYYADSVKGRFTISRDNAKNTVYLQMNSLKPEDTAVYYCAAGPTSRRWYDYWGQGTQVTVSS | high polyreactivity
QVQLVESGGGLVQAGRSLRLICAASGSTFKRYAMGWYRQAPGKERELVAAITWTGGRTYYADSVKGRFTISRDNANYTVYLQMNSLKPEDTAVYYCAADDPHTAYGYWGQGTQVTVSS | high polyreactivity
QVQLVESGGGLVQAGRSLRLSCAASGFIFWRYAMGWYRQAPGKERELVAAISSGRNTKYADSVKGRFTISRDNAKTTVYLQMNSLKPEDTAVYYCAVLGKYLWSATNRFPGSYDSWGHGTQVTVSS | high polyreactivity
QVQLVESGGGLVQAGRSLRLSCAASGFTFIRYDMGWYRQALGKETELVATITRRGGSTYYADSVKGRFTISRDNAKNTVYLQMNSLKPEDTAVYYCNRDYVTYGKYYYWGQGTQVTVSS | high polyreactivity
QVQLVESGGGLVQAGRSLRLSCAASGFTFLVYAMGWYRQAPGTERELVAAMSNGGSTNYADSVKGRFTITRDTAKNTVYLHMNSLKPEDTAVYYCAADDPRDHWYTAMDYWGQGTQVTVSS | low polyreactivity

Sequence | polyreactivity (PSR sort gate)
QVQLVESGGGLVQAGRSLRLSCAASGNIFIRYAMGWYRQAPGKEREVVAAISQSGGGTSYADSVKGRFTISRDNAKNTVYLQMNSLKPEDTAVYYCNARYWRYPWRFGAWVGHDYWGQGTQVTVSS | low polyreactivity
QVQLVESGGGLVQAGRSLRLSCAASGRIFSRYTMGWYRQAPGKERELVAANSYRGGSTYYADSVKGRFTISRDNAKNTVYLQMNSLKPEDTEVYYCAARVQAIYRYDYCGQGTQVTVSS | high polyreactivity
QVQLVESGGGLVQAGRSLRLSCAASGRIFYGYAMGWYRQAPGRERELVAANTYIGGTYYADSVKGRFTISRDNAKNTVYLQMKSLKPEDTAVYYCATEPFYTYGYYTYPYWYDYWGQATQVTVSS | low polyreactivity
QVQLVESGGGLVQAGRSLRLSCAASGSIFGFYAMGCYRQAPGKERELVAASTVSDGTTYYADSVKGRFTISRDNAKNSFFFLMNSVKPEDTVVYYCAGDVFRQHEYYYWGQGTQVTVSS | low polyreactivity
QVQLVESGGGLVQAGRSLRLSCAASGSILGFYAMGWYRHAPGKERELVAAIRWRAGSTYYADSVKGRFTISRDNAKNTVNLQMNSLKPEDTAVYYCAAPTKYRSRRYYWGQGTQVTVSS | high polyreactivity
QVQLVESGGGLVQAGRSLRLSCPASGRTVVYNSLGWYRQAPGKETEFVAAITRSRDSTYYADSVKGRFTISRDNASNPVYLEMNSLKPEDSAAYYCNAVSKRYWLMDYWGQGTQVTVSS | high polyreactivity
QVQLVESGGGLVQAGRSNRISCAASGGIFSYYAMGWYRQAPGKEREFVAAIDWGGGSTYYADSLKGRFTLSRDNAKNTVYLQMNSLKPEDTAVYYCAAEIYPIGWDDYDYWGQGTQVTVSS | low polyreactivity
QVQLVESGGGLVQAGRTLRLSCAASGRLFSHNAMGWYRQAPGKEREWVAAISGSGGSTYYADSVKGRFTISRDNAKNTVYLQMNSLKPEDTAVYYCAARFAVLVTRRFYYWGQGTQVTVSS | high polyreactivity
QVQLVESGGGLVQAGRTLRLSCAATGFIIVHNAMGWYRQPPGKERELVAAITSRGRTYYADSVKGRFTISRDHAKNTVYLQMNSLKPEDTAVYYCNPYWRGDYRYDSWGQGTQVTVSS | high polyreactivity
QVQLVESGGGLVQAGVILRLSCAASGRIITTYAMGRYRQAPGKERELVAAISARGGRTYYADSVKGRFTISRDNAKNTVYLQMNSLKPEDTAVYYCAAVSIQAYTRRQYDWGQGTQVTVSS | high polyreactivity
QVQLVESGGGLVQAGVRLRLSCAASGFIFVVNAMGWYRPATRKEREFVAVISSSTGSTYYADSVKGRFTISRDNAKYTVYLPMNSLKPEDTAVYYCAAASRRRRPLKRMDYWGQGTQVTVSS | low polyreactivity
QVQLVESGGGLVQAGVRLRLSCPASGTTFYYNAMGRYRQAPGKERELVAAITSGGRTKYADSVKGRFTISRDNAKNTVYLQKNRLKPEDTAVYYCNTYNRRSGTLPKAYDYWGQGTQVTVSS | high polyreactivity
QVQLVESGGGLVQAGVSLRISCAASGFTFSRNAMGWYRQAPGKESELVAAITWSGGRSYYADSVKGRFTISGDNAKNPVYLQMNSLKPEDTAVYYCAARKYPLRSAYDYWGPGTQVTVSS | low polyreactivity
QVQLVESGGGLVQAGVSLRISSAASGLIFGSNAMGWYRQAPGIERELVAAISWRGGSTYYADSVKGRFTISRDNAKKTVSCQMNSLKPEDTAVYYCAKYPYYYYWFNYCGQGTQVTVSS | high polyreactivity
QVQLVESGGGLVQAGVSLRLICAASGFIFPTKVMGWYRQAPATEREFVASITWRGGGTFYADSVKGRFTISRDNAKNTVYLQMNRLKPEDTAVYYCAAGRSWSSFWKYDYWGQGTQVTVSS | low polyreactivity
QVQLVESGGGLVQAGVSLRLICAASGSIFITNFMGWYRQAPGKERELVAVISASGGSTYYADSVKGRFTISRDNAKNNVYLQMNSMKPEDTAVYYCARTQRRYSYGQMGYWGQGTQVTVSS | high polyreactivity
QVQLVESGGGLVQAGVSLRLRCAASASILSYYAMGWYRHAPGKERELVAAISRSGCTTYYADSVKGRFTISRDYAKNTVYLQMNSLIPEDTAVYYCAAVDRYYAYRDYYYWGQGTQVTVSS | high polyreactivity
QVQLVESGGGLVQAGVSLRLSCAASGFIFRPYTMGWYRLAPGKERELVAAISRSGDSTYYADSVKGRFTISRDNAKNTVYLQMNSLKPEDTAVYYCAAYYNGRVGPYYYWGQGTQVTVSS | high polyreactivity
QVQLVESGGGLVQAGVSLRLSCAASGFNFVFYDMGWYRQAPGKERELVAGITRNDGSTYYADSVKGRFKISRDNAKNTVYLQMNSLKPEDTAVYYCAADRVRRNDKLAYDYWGQGTQVTVSS | low polyreactivity
QVQLVESGGGLVQAGVSLRLSCAASGFTFQAYAMGWYRQAPGKERELVAAIRSRGDSTYYADSVKGRFTISRDNSKNTVYLQMNSLKPEDTAVYYCNVLGYSYWGQGTQVTVSS | high polyreactivity
QVQLVESGGGLVQAGVSLRLSCAASGFTFYYYAMVRNRQAPGKERELVAAITGSGGGTYYADSVKGRFTISRDYAKNTVYLQKNSLKPEDTAVYYCNALYVSTSDFVYWGQGTQVTVSS | high polyreactivity
